Six molecules from patent US7348407 (dated 2008) can be followed below.

Test [1] concerns the target T1, Flag-tagged full-length p300 (baculovirus expressed, on M2-anti-flag antibody agarose) (UniProt Q09472 2-2414, limits assumed).
T1 construct: mature; also called flag-p300; flag-tagged wild-type p300; not shown: Flag tag
Put plainly: biochemical binding assay with STRAP derivatives (summary in FIG. 7).

Test [2] concerns the target T2, his-tagged wild-type JMY (pET-JMY, bacterially expressed) (UniProt Q9QXM1 1-983).
T2 construct: also called His-JMY; purified recombinant JMY; not shown: His tag from pET28a
The test is described as above.

Test [3] addresses T2, his-tagged wild-type JMY (pET-JMY, …). Put plainly: in vitro translated STRAP derivative binding to his-tagged wild-type JMY.
Test [4] deals with T1, Flag-tagged full-length p300 …. Put plainly: in vitro translated STRAP derivative binding to flag-tagged wild-type p300 on anti-flag agarose.
Test [5] addresses p300 (pCMV-p300, expressed in transfected cells) (UniProt Q09472 1-2414). Put plainly: co-immunoprecipitation from STRAP expressing U2OS cells treated with etoposide, against untreated cells.
For test [6], the target named is T1, Flag-tagged full-length p300 …. Briefly: biochemical binding assay with a panel of p300 derivatives.
The target in test [7] is T2, his-tagged wild-type JMY (pET-JMY, …). Briefly: summary of the biochemical binding assays.
Test [8] addresses T3, JMY683-983 (pCMV-HA-JMY683-983, in vitro translated) (UniProt Q9QXM1 683-983).
T3 sequence (looked up): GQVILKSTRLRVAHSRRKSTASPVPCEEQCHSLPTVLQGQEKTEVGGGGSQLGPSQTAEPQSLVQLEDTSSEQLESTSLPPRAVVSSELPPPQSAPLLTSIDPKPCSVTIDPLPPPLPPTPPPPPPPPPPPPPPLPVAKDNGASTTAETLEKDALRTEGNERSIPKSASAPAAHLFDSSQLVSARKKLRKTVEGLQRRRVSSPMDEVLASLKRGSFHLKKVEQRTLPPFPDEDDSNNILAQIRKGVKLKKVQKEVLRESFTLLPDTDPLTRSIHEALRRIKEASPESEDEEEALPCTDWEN
Put plainly: in vitro translated JMY derivatives tested for binding to STRAP.

The target in test [9] is JMY1-119 (pCMV-HA-JMY1-119, in vitro translated) (UniProt Q9QXM1 1-119). Described as above.
The target of test [10] is T1, Flag-tagged full-length p300 …. Briefly: binding properties of the STRAP mutant derivative.
In test [11] the target is T2, his-tagged wild-type JMY (pET-JMY, …). Put plainly: binding properties of the STRAP mutant derivative.

T1 sequence (Q09472 2-2414 limits assumed): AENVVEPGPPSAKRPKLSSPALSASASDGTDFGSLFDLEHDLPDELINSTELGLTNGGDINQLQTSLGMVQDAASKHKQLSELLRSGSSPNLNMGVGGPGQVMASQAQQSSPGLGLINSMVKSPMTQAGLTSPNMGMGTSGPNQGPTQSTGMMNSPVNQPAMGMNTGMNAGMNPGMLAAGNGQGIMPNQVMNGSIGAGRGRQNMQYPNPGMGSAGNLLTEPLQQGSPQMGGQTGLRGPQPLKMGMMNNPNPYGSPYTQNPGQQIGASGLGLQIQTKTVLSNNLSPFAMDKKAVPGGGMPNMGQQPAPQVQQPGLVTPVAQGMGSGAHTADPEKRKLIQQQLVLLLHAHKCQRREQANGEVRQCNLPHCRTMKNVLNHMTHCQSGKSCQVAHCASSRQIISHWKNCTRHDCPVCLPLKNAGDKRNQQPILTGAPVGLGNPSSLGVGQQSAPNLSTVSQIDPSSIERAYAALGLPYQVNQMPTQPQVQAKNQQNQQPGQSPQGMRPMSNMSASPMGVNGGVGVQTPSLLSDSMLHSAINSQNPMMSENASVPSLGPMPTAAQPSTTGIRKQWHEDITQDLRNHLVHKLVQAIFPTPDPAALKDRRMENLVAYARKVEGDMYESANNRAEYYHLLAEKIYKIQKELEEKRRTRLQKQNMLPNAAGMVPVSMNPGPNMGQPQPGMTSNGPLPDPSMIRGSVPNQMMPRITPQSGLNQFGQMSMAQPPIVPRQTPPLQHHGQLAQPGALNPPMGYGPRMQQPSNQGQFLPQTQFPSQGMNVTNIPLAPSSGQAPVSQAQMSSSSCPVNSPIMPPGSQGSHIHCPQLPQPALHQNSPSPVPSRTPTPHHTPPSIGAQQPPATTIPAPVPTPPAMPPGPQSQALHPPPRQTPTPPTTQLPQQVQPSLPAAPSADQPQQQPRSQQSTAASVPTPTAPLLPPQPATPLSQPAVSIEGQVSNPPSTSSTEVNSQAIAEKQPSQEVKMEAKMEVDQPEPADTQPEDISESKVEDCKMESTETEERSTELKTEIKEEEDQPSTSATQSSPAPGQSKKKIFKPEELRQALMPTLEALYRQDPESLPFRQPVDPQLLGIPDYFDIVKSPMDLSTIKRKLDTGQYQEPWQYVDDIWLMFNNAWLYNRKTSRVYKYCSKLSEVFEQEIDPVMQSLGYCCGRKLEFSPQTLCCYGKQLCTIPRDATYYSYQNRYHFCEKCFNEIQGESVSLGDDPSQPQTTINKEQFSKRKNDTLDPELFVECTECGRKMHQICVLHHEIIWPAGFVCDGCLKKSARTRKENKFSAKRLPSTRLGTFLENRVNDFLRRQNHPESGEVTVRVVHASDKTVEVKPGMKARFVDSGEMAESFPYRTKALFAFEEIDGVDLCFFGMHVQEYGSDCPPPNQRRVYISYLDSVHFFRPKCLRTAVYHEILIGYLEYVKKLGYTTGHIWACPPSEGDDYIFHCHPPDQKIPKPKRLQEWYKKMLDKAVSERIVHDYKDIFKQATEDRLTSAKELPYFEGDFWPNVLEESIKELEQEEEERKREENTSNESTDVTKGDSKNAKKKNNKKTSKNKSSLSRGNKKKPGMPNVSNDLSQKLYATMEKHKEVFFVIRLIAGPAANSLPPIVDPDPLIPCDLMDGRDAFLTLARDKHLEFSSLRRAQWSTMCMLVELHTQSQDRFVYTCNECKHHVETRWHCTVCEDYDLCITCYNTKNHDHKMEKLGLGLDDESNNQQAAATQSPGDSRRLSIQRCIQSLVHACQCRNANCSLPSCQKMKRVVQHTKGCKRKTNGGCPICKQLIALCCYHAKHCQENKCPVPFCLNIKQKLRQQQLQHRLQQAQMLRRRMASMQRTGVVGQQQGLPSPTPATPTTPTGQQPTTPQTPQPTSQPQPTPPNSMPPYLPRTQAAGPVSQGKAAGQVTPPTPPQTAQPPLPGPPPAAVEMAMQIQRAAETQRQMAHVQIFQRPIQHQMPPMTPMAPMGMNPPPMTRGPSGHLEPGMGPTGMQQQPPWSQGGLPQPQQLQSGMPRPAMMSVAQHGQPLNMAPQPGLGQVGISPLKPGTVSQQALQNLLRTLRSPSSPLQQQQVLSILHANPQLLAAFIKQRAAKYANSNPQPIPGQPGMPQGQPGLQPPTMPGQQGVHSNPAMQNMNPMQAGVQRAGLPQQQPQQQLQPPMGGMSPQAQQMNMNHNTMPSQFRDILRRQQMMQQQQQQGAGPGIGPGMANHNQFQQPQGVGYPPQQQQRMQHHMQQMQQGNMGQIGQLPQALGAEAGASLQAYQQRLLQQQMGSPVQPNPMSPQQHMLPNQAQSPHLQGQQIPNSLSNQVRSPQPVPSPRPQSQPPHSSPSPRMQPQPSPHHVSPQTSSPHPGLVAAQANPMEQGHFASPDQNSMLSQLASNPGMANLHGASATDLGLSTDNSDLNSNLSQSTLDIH
Sequence of p300 (pCMV-p300, expressed in transfected cells) (Q09472 whole entry): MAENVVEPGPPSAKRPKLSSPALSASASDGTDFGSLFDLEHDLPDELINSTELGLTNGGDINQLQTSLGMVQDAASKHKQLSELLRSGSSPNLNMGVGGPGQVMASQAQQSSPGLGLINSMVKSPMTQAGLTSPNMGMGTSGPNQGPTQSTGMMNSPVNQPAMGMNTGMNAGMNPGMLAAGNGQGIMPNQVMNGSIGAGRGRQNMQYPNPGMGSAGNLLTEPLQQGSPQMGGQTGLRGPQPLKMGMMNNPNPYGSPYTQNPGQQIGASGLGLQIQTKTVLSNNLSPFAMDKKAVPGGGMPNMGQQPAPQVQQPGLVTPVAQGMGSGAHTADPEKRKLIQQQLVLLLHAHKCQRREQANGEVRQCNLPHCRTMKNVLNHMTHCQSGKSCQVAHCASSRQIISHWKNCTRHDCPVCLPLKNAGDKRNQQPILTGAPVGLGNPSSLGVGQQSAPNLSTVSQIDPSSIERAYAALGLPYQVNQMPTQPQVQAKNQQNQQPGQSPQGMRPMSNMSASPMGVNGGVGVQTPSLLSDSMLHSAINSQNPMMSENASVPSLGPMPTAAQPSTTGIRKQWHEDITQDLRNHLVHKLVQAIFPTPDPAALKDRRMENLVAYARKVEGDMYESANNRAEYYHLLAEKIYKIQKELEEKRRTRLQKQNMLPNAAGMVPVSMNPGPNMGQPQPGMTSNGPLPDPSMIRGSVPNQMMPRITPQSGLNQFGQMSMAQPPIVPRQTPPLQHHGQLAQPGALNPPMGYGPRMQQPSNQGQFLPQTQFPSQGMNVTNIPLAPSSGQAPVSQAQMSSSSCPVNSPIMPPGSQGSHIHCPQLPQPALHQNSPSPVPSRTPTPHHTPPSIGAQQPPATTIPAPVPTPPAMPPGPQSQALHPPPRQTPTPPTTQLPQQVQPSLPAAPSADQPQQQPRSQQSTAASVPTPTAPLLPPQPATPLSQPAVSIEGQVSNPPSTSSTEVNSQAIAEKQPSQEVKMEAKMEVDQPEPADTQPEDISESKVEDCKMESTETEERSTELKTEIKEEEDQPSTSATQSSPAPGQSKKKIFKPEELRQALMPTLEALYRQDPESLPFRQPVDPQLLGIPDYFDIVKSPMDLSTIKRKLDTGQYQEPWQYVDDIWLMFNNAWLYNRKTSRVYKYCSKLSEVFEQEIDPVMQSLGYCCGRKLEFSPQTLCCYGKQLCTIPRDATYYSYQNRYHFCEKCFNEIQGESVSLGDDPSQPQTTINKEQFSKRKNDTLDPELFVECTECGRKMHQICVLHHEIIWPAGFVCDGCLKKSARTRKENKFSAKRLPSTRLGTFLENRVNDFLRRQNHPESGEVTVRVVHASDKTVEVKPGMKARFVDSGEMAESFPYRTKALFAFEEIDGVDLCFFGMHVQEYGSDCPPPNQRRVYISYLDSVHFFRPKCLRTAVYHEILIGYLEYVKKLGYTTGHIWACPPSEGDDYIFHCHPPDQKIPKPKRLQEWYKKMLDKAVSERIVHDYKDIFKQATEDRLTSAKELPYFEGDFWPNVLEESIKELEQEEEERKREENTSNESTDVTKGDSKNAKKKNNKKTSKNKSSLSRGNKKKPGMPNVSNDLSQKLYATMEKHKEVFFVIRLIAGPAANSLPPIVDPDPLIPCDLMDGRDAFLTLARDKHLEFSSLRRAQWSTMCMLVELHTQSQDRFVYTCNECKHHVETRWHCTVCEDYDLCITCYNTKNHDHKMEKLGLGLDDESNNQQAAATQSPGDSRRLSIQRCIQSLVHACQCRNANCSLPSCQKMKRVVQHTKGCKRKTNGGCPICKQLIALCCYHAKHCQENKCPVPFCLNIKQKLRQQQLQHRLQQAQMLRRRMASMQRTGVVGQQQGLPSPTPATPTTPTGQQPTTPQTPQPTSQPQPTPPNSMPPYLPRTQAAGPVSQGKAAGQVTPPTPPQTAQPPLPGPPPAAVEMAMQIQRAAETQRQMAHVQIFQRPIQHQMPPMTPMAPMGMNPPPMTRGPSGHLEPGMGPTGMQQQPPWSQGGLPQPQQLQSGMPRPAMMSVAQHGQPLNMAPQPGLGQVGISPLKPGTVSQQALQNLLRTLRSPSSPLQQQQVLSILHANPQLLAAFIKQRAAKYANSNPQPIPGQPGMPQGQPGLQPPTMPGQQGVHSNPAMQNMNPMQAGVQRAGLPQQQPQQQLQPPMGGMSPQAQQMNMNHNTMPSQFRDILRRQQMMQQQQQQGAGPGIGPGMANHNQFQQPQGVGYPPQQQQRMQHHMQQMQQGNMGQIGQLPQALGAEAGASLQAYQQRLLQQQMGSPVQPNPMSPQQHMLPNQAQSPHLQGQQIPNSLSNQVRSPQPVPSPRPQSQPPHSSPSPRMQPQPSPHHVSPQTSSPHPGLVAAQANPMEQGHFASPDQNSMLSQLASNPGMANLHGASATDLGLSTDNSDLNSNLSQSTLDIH

B1: STRAP8-123 (other)
chain: EAKHVLQKLQGLVDRLYCFRDSYFETHSVEDAGRKQQDVQEEMEKTLQQMEEVLGSAQVEAQALMLKGKALNVTPDYSPEAEVLLSKAVKLEPELVEAWNQLGEVYWKKGDVTSAH
notes: A pET form also exists; not shown: HA tag (pCMV-HA, in vitro translated) or His tag (pET28C, purified)
As to B1, the binding result in test [1] is “no binding”; in test [2], “binds”.

B2: STRAP123-205 (other, not shown: small tags and cut ends)
chain: HTCFSGALTHCKNKVSLQNLSMVLRQLQTDSGDEHSRHVMDSVRQAKLAVQMDVLDGRSWYILGNAYLSLYFNTGQNPKISQQ
notes: In vitro translated
Take B2: the binding result in test [3] is listed as “binds”.

B3: STRAP206-438 (other, not shown: small tags and cut ends)
chain: ALSAYAQAEKVDRKASSNPDLHLNRATLHKYEESYGEALEGFSQAAALDPAWPEPQQREQQLLEFLSRLTSLLESKGKTKPKKLQSMLGSLRPAHLGPCGDGRYQSASGQKMTLELKPLSTLQPGVNSGTVVLGKVVFSLTTEEKVPFTFGLVDSDGPCYAVMVYNVVQSWGVLIGDSVAIPEPNLRHHQIRHKGKDYSFSSVRVETPLLLVVNGKPQNSSSQASATVASRPQ
notes: In vitro translated
Consider B3, for which the binding result in [3] and in [4] was “binds” each time.

B4: JMY (pCMV-JMY, expressed in transfected cells) (other, UniProt Q9QXM1 1-983, looked up)
chain: MSFALEETLESDWVAVRPHVFDEREKHKFVFIVAWNEIEGKFAITCHNRTAQRQRSGSREQAGTPASDGSRGPGSPAARGRSEAAASATAALRSPGPRKSQAWAEGGSPRSARSLKGDPPRGPAGRGPESPLRSPARAKASPLRRSAESRDAIASATPVPPAPPVPPVSSVRVVSASGAVSEEIEVLEMVREDEAPQPLPDSEQPPSAAELESSAEECSWAGLFSFQDLRAVHQQLCSVNSQLEPCLPVFPEEPSGMWTVLFGGAPEMTEQEIDALCYQLQVYLGHGLDTCGWKILSQVLFTETDDPEEYYESLSELRQKGYEEVLQRARRRIQELLDKHKTIESMVELLDLYQMEDEAYSSLAEATTELYQYLLQPFRDMRELAMLRRQQIKISMENDYLGPRRIESLQKEDADWQRKAHMAVLSIQDLTVKYFEITAKAQKAVYDRMRADQKKFGKASWAAAAERMEKLQYAVSKETLQMMRAKEICLEQKKHALKEEMQSLQGGTEAIARLDQLESDYYDLQLQLYEVQFEILKCEELLLTAQLESIKRLISEKRDEVVYYDTYESMEAMLEKEEMAASVHAQREELQKLQQKARQLEARRGRVSAKKAYLRNKKEICIAKHHEKFQQRFQSEDEYRAHHTIQIKRDKLHDEEERKSAWVSQERQRTLDRLRTFKQRYPGQVILKSTRLRVAHSRRKSTASPVPCEEQCHSLPTVLQGQEKTEVGGGGSQLGPSQTAEPQSLVQLEDTSSEQLESTSLPPRAVVSSELPPPQSAPLLTSIDPKPCSVTIDPLPPPLPPTPPPPPPPPPPPPPPLPVAKDNGASTTAETLEKDALRTEGNERSIPKSASAPAAHLFDSSQLVSARKKLRKTVEGLQRRRVSSPMDEVLASLKRGSFHLKKVEQRTLPPFPDEDDSNNILAQIRKGVKLKKVQKEVLRESFTLLPDTDPLTRSIHEALRRIKEASPESEDEEEALPCTDWEN
notes: also called JMY co-factor; wild-type JMY
For the molecule B4, the “fold increase in the level of co-immunoprecipitated JMY with p300” value in [5] is around 10 fold.

B5: STRAP (construct not stated for the experiment) (other)
chain: EAKHVLQKLQGLVDRLYCFRDSYFETHSVEDAGRKQQDVQEEMEKTLQQMEEVLGSAQVEAQALMLKGKALNVTPDYSPEAEVLLSKAVKLEPELVEAWNQLGEVYWKKGDVTSAHTCFSGALTHCKNKVSLQNLSMVLRQLQTDSGDEHSRHVMDSVRQAKLAVQMDVLDGRSWYILGNAYLSLYFNTGQNPKISQQALSAYAQAEKVDRKASSNPDLHLNRATLHKYEESYGEALEGFSQAAALDPAWPEPQQREQQLLEFLSRLTSLLESKGKTKPKKLQSMLGSLRPAHLGPCGDGRYQSASGQKMTLELKPLSTLQPGVNSGTVVLGKVVFSLTTEEKVPFTFGLVDSDGPCYAVMVYNVVQSWGVLIGDSVAIPEPNLRHHQIRHKGKDYSFSSVRVETPLLLVVNGKPQNSSSQASATVASRPQ
notes: also called 60,000 molecular weight STRAP polypeptide
With B5, the binding result in test [6], in test [7], in [8] and in test [9] was “binds” in each case.

B6: STRAP8-205 (other, not shown: small tags and cut ends)
chain: EAKHVLQKLQGLVDRLYCFRDSYFETHSVEDAGRKQQDVQEEMEKTLQQMEEVLGSAQVEAQALMLKGKALNVTPDYSPEAEVLLSKAVKLEPELVEAWNQLGEVYWKKGDVTSAHTCFSGALTHCKNKVSLQNLSMVLRQLQTDSGDEHSRHVMDSVRQAKLAVQMDVLDGRSWYILGNAYLSLYFNTGQNPKISQQ
For B6, the binding result in test [10] was “no binding”; in test [11], “binds”.
